In publication doi:10.1101/2024.02.25.581951:

Target: T1, IRF3 (mouse (endogenous in mouse ESCs)), P70671
T1 chain: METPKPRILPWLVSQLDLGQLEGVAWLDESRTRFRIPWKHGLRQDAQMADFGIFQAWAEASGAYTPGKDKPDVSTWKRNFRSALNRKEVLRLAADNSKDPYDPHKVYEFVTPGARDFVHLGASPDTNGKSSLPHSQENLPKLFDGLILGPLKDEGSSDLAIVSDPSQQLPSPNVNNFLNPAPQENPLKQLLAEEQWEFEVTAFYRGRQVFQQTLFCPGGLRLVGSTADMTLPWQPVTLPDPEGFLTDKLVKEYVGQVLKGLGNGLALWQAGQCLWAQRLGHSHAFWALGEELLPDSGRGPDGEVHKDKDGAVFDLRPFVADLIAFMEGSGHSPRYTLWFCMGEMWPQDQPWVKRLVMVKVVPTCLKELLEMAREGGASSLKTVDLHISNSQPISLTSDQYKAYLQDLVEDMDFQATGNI
Assay: native gel or EMSA
Details: remark: other sources report otherwise

B1: IRF3, P70671 1-419 (natural protein)
chain: METPKPRILPWLVSQLDLGQLEGVAWLDESRTRFRIPWKHGLRQDAQMADFGIFQAWAEASGAYTPGKDKPDVSTWKRNFRSALNRKEVLRLAADNSKDPYDPHKVYEFVTPGARDFVHLGASPDTNGKSSLPHSQENLPKLFDGLILGPLKDEGSSDLAIVSDPSQQLPSPNVNNFLNPAPQENPLKQLLAEEQWEFEVTAFYRGRQVFQQTLFCPGGLRLVGSTADMTLPWQPVTLPDPEGFLTDKLVKEYVGQVLKGLGNGLALWQAGQCLWAQRLGHSHAFWALGEELLPDSGRGPDGEVHKDKDGAVFDLRPFVADLIAFMEGSGHSPRYTLWFCMGEMWPQDQPWVKRLVMVKVVPTCLKELLEMAREGGASSLKTVDLHISNSQPISLTSDQYKAYLQDLVEDMDFQATGNI
In the case of B1, the stoichiometry N is reported as 2.
